Experiment [1] has as its target T1, His-tagged HM1.24 antigen, residues N49-A163 of the extracellular domain (human, UniProt Q10589 49-163).
T1 construct: Expressed in 293T cells, purified by Ni-NTA; not shown: N-terminal His-tag and Factor Xa cleavage site
T1 sequence: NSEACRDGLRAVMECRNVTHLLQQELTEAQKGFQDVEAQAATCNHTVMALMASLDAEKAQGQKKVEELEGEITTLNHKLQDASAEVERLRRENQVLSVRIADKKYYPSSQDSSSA
The experiment in a line: Biacore (SPR): His-tagged HM1.24 antigen coupled directly to the chip (NHS chemistry), antibody as analyte; separate kd and ka fitting. An excerpt: (§1) FIG. 17. Binding of anti-HM1.24 antibodies to HM1.24 antigen monitored by Biacore. In this format, HM1.24 antigen was coupled directly to the chip, and antibodies at multiple concentrations were used as analyte in this format.
(In general: SPR reads the build-up and loss of mass on a sensor chip optically.)

Experiment [2] deals with T1, His-tagged HM1.24 antigen, residues …. The experiment in a line: Biacore (SPR): His-tagged HM1.24 antigen coupled directly to the chip (NHS chemistry), antibody as analyte; simultaneous (global Langmuir) fitting.
From the text: as §1

As usually defined, the koff is the first-order rate constant of dissociation. A high value points to fast dissociation. The term kon denotes the rate constant with which the complex forms.

Numbering of substitutions follows the chain as printed. Numbers in names are those of the source.

B1: HM1.24_H1L4 (antibody, V domains shown)
VH: QVQLVQSGAEVKKPGASVKVSCKASGYTFTPYWMQWVRQAPGQGLEWMGSIFPGDGDTRYSQSFQGQVTISADKSISTAYMELSRLRSDDTAVYYCARGLRRGGYYFDYWGQGTLVTVSS
VL: DIVMTQSPLSLPVTLGQPASISCKASQDVNTAVAWYLQKPGKSPKLLIYSASNRYTGVPDRITGSGSGTDFTLKISRVEAEDVGVYYCQQHYSTPFTFGSGTKLEIKR
notes: also called H1 and L4 combination; parent H1 antibody
In experiment [1], B1 returned a dissociation rate constant (koff) of 5.53e-05 s⁻¹ and a kon of 966000 M⁻¹ s⁻¹. In experiment [2], this molecule gave an off-rate (koff) of 3.18e-05 s⁻¹ and a kon of 834000 M⁻¹ s⁻¹.

B2: HM1.24_H1L2 (antibody, human IgG1, kappa, V domains shown)
VH: B1 VH
VL: DIVMTQSPSSLSASVGDRVTITCQASQDVNTAVAWYQQKPDQSPKLLIYSASNRYTGVPDRITGSGSGTDFTLTISSLQAEDVAVYYCQQHYSTPFTFGSGTKLEIKR
notes: also called H1 and L2 combination
For B2, in experiment [1], the koff stood at 4.49e-05 s⁻¹ and the kon was 782000 M⁻¹ s⁻¹. Besides, in experiment [2], the koff turned out to be 2.03e-05 s⁻¹ and the kon worked out at 754000 M⁻¹ s⁻¹.

B3: Antibody comprising the HM1.24_H1.2 heavy chain variant and the HM1.24_L4 light chain (antibody, human IgG1, kappa, V domains shown)
VH: B1 VH with D55S
VL: B1 VL
As for B3, in experiment [1], the dissociation rate constant (koff) is 9.54e-05 s⁻¹ and the kon amounted to 1.34e+06 M⁻¹ s⁻¹. In experiment [2], this molecule returned a koff of 7.99e-05 s⁻¹ and a kon of 1.29e+06 M⁻¹ s⁻¹.

B4: HM1.24_H0L0_IgG1_WT (antibody)
heavy: not shown
light: DIVMTQSHKFMSTSVGDRVSITCKASQDVNTAVAWYQQKPGQSPKLLIYSASNRYTGVPDRITGSGSGTDFTFTISSVQAEDLALYYCQQHYSTPFTFGSGTKLEIKRTVAAPSVFIFPPSDEQLKSGTASVVCLLNNFYPREAKVQWKVDNALQSGNSQESVTEQDSKDSTYSLSSTLTLSKADYEKHKVYACEVTHQGLSSPVTKSFNRGEC
notes: also called WT anti-HM1.24 antibody; parent HM1.24_H0L0_IgG1 WT antibody
Turning to B4, in experiment [1], the koff is 4.4e-05 s⁻¹ and the kon stood at 820000 M⁻¹ s⁻¹. In addition, in experiment [2], the off-rate constant (koff) was determined as 3.57e-05 s⁻¹ and the kon worked out at 699000 M⁻¹ s⁻¹.

B5: HM1.24_H0L0 IgG1 S239D/I332E (antibody)
heavy: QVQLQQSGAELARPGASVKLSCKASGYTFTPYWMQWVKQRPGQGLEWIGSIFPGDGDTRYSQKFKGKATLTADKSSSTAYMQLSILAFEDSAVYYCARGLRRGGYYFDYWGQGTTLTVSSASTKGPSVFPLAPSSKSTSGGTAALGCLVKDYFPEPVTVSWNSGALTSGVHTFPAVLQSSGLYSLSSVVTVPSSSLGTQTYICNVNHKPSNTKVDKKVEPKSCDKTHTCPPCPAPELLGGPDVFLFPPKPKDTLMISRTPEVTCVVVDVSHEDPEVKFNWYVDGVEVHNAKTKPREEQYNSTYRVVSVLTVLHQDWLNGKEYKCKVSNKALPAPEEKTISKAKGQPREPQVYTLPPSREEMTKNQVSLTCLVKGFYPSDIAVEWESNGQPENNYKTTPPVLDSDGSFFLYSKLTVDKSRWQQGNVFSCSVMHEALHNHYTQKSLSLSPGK
light: B4 light
B5: the results for the koff in experiment [1] and in experiment [2] were 5.5e-05 s⁻¹ and 4.03e-05 s⁻¹, respectively. Further, the kon in experiment [1] came to 863000 M⁻¹ s⁻¹; in experiment [2] it was 772000 M⁻¹ s⁻¹.

The record behind these values is patent US20100104557A1 (Xencor, published 2010).
